Paper PMC9331606 (2022)

B1: Halo-tagged human cytomegalovirus immediate early 1 protein (hIE1) [human cytomegalovirus (HCMV)] / NanoLuciferase-tagged human promyelocytic leukemia protein (hPML) [human] (parent complex)
chain 1: MESSAKRKMDPDNPDEGPSSKVPRPETPVTKATTFLQTMLRKEVNSQLSLGDPLFPELAEESLKTFEQVTEDCNENPEKDVLAELVKQIKVRVDMVRHRIKEHMLKKYTQTEEKFTGAFNMMGGCLQNALDILDKVHEPFEEMKCIGLTMQSMYENYIVPEDKREMWMACIKELHDVSKGAANKLGGALQAKARAKKDELRRKMMYMCYRNIEFFTKNSAFPKTTNGCSQAMAALQNLPQCSPDEIMAYAQKIFKILDEERDKVLTHIDHIFMDILTTCVETMCNEYKVTSDACMMTMYGGISLLSEFCRVLCCYVLEETSVMLAKRPLITKPEVISVMKRRIEEICMKVFAQYILGADPLRVCSPSVDDLRAIAEESDEEEAIVAYTLATAGVSSSDSLVSPPESPVPATIPLSSVIVAENSDQEESEQSDEEEEEGAQEEREDTVSVKSEPVSEIEEVAPEEEEDGAEEPTASGGKSTHPMVTRSKADQ
chain 2: MEPAPARSPRPQQDPARPQEPTMPPPETPSEGRQPSPSPSPTERAPASEEEFQFLRCQQCQAEAKCPKLLPCLHTLCSGCLEASGMQCPICQAPWPLGADTPALDNVFFESLQRRLSVYRQIVDAQAVCTRCKESADFWCFECEQLLCAKCFEAHQWFLKHEARPLAELRNQSVREFLDGTRKTNNIFCSNPNHRTPTLTSIYCRGCSKPLCCSCALLDSSHSELKCDISAEIQQRQEELDAMTQALQEQDSAFGAVHAQMHAAVGQLGRARAETEELIRERVRQVVAHVRAQERELLEAVDARYQRDYEEMASRLGRLDAVLQRIRTGSALVQRMKCYASDQEVLDMHGFLRQALCRLRQEEPQSLQAAVRTDGFDEFKVRLQDLSSCITQGKDAAVSKKASPEAASTPRDPIDVDLPEEAERVKAQVQALGLAEAQPMAVVQSVPGAHPVPVYAFSIKGPSYGEDVSNTTTAQKRKCSQTQCPRKVIKMESEEGKEARLARSSPEQPRPSTSKAVSPPHLDGPPSPRSPVIGSEVFLPNSNHVASGAGEAEERVVVISSSEDSDAENSSSRELDDSSSESSDLQLEGPSTLRVLDENLADPQAEDRPLVFFDLKIDNETQKISQLAAVNRESKFRVVIQPEAFFSIYSKAVSLEVGLQHFLSFLSSMRRPILACYKLWGPGLPNFFRALEDINRLWEFQEAISGFLAALPLIRERVPGASSFKLKNLAQTYLARNMSERSAMAAVLAMRDLCRLLEVSPGPQLAQHVYPFSSLQCFASLQPLVQAAVLPRAEARLLALHNVSFMELLSAHRRDRQGGLKKYSRYLSLQTTTLPPAQPAFNLQALGTYFEGLLEGPALARAEGVSTPLAGRGLAERASQQS

Variants of: B1
Assay: NanoBRET; HEK293T cells transfected 24 h; 4 h incubation with Halo ligand; detection time 5 s at 618 nm and 448 nm; parent: 23; read off a plot

Variant	response [mBU]
chain 1 L174P	~1.2
